Measurements from the DeepSol protein solubility set.

test: soluble on expression in E. coli; label from the status in PepcDB or PDB records

| Sequence | soluble on expression in E. coli |
| --- | --- |
| MSDTVEELVQRAKLAEQAERYDDMAAAMKKVTEQGQELSNEERNLLSVAYKNVVGARRSSWRVISSIEQKTEGSEKKQQLAKEYRVKVEQELNDICQDVLKLLDEFLIVKAGAAESKVFYLKMKGDYYRYLAEVASEDRAAVVEKSQKAYQEALDIAKDKMQPTHPIRLGLALNFSVFYYEILNTPEHACQLAKQAFDDAIAELDTLNEDSYKDSTLIMQLLRDNLTLWTSDVGAEDQEQEGNQEAGN | soluble |
| VGDFNYYASANWSCEQSKVLYKDEQKVPYEYLRTTGKPKGAIFGLVAEGFFTSQDEITKSPVIEGFNNIQPGDIKYKDQNNDGVINDFDKVMIGGDKPLSYFGIDLGFEWRGLEFSMFWQGVYNKDVLMSDWNLLEGFQTQGQVYGQAYENMLDRWTPETAATATFPRLSAGGNKYNQGNGWGSSFWLRSGNYIRLKNVSLGYNLPDSFCRNYLGGARVKVFVSGQNLFTKAANELVDPEVSFGNYPLQRCISTGINVKF | not soluble |
| MAHHHHHHMNESSIYIYNLTRNVSINHLKEIFMNFGTLKDVQYVTYVEESMFHEKGDGKDGDKKEDNDDKEEDDDKEEDNNKEEDNDKEEDNDKEEDNDNNDDNNDDNNDDNNDDGDDNDDNHICVHIKYENSKEAQAAKEFMDGGQIDGKIISVKYKINHKYIKTYTKKKKEKKKKN | not soluble |
| SNAMNDIILKSLSTLITEQRNPNSVDIDRQSTLEIVRLMNEEDKLVPLAIESCLPQISLAVEQIVQAFQQGGRLIYIGAGTSGRLGVLDASECPPTFGVSTEMVKGIIAGGECAIRHPVEGAEDNTKAVLNDLQSIHFSKNDVLVGIAASGRTPYVIAGLQYAKSLGALTISIASNPKSEMAEIADIAIETIVGPEILTGSSRLKSGTAQKMVLNMLTTASMILLGKCYENLMVDVQASNEKLKARAVRIVMQATDCNKTLAEQTLLEADQNAKLAIMMILSTLSKSEAKVLLERHQGKLRNALSK | soluble |
| MGSDKIHHHHHHMLNIVVVAHPDDEILGFGATGAKLAAKGEVVQPIILCGSVDARTLRPTDEELHSDMLKANSLVGFSKPVLGDFPNISMNTVPHVELVQFIEEQIKKFRPNRIFTHHPNDLNNDHTQVSNACLAASRLFQRRNDLPALEALYFMEILSSTDWAFPAVGDGFKPTTFVEITCELEKKLAALHHYRNVMRPFPHPRSDEVVTGLAAYRGGQAGLKYAEAFQLVFKQGV | not soluble |
| QQGNPNLSSPQPILDTIYKLLSEQEQTLVQMIHEQSLLLNRLPPTLDENSLAPLKSLSQKQITLSGQMNTEMSALDATKKGMILEPTDLAKLFALKQDLQIQFKQLSLLHNEIQSILNPQHSAPKPNVALVLKSQPFPVVISKGKQLGENQLVVLVLTGARSNFHINGPVKATMICDSHPTNKNNPTTPLEMDSQPIYPATLTAHFPLKFLAGTRKCSVNLKFGVNIRDLDNVTTTVESDASNPFVVITNECQWEGSAGVLLKKDAFDGQLEITWAQFINTLQRHFLIATKQDPVRPKRPLSSYDLKYIQTHFFGNRSIIHQQDFDKFWVWFGKSMQTLRYQRHISTLWQEGIIYGYMGRQEVNDALQNQDPGTFIIRFSERNPGQFGIAYIGVEMPARIKHYLVQPNDTAAAKKTFPDFLSEHSQFVNLLQWTKDTNGAPRFLKLHKDTALGSFAPKRTAPVPVGGYEPLNS | soluble |
| MGSDKIHHHHHHLRDATSQIGQTVVGEAVRLVSFRPLGNLANHTLLMAAIVMMQSKHPDQFEKSNEILDTLMEREMHHPVVLTWAGIWHVMRVQKGLSGDRRKSTLMAENLANAALAQDPAFSLAHTLKGMIASYLTFDFDNAQYSYDKALQDNPNEALALLLKGATRAMQNRPDEGVVLTEAARKLTPLGPQRYYFDSLAAAVSLAARDYNRAIELADRSLEENDSYPSTLRTKAIALQMSGRSDEARHVVESLMKVTPDFSLSRYMQEHAAGFTPSGPDWASALREAGVPE | not soluble |
| KVNMDLRANLKQVKKEDTEKEKDLRDVGDWRKNIEEKSGMEGRKKMFEAGES | soluble |
| MGHHHHHHSHMPTDNDLKAAILELLRDLDVLLVAHFYQKDEIVELAHYTGDSLELAKIASQSDKNLIVFCGVHFMGESVKALAFDKQVIMPKLSCCSMARMIDSHYYDRSVHLLKECGVKEFYPITYINSNAEVKAKVAKDDGVVCTSRNASKIFNHALKQNKKIFFLPDKCLGENLALENGLKSAILGANSQEEIKNADVVCYNGFCSVHQLFKLEDIEFYRQKYPDILIAVHPECEPSVVSNADFSGSTSQIIEFVEKLSPNQKVAIGTESHLVNRLKAKRHHQNTFILSSTLALCPTMNETTLKDLFEVLKAYKNHRAYNTIELKDEVARLAKLALTKMMELS | not soluble |
| MTTMTPDAAGLAALEARLKQDLAWLELPAKSWVPRRVVDGKSVVDVVIVGAGMAGLVASAMLRRLGVDNQLVLDRARAGEEGPWVTFARMRTLRSPKELTGPAMGMPALTFRAFYEAQYGRQAWQALDRAPRTMWMDYLIWYRKVLDLPVRNGVSVERIHARTDELFALDISEGGTSRQILARHVVLATGRDGLGGAYVPSLCDGIDRRFWAHSSAPIDFERLRGRRVAVVGAGASAMDNAAMALEAGAARLDLFIRRADIPRVNKFTGIGSQGVVHGFAGLSDDWKWRFLDHTLKAQTPPPRQSVLRVSAYPQAHFHLASPIDDLAVAGDHLTVTTPKGRYATDFIIFGTGFKVDLALRDELAEFAPHIRFWCDRFPAPDGMDNAELENSPDLGDSFQFLEKEPGACPMLARLHCFNYPATLSHGKLSGDIPAISEGADRLARGIVRRLFVEDREIHFANLKAFATPELAGDEWQDADVTHQPAE | soluble |
| MSLETELPQAQDGSVRLLQITDTHLFASAEGRLLAVRTAESLAAVLERVQANDHPFDLILATGDLSQDHSPESYQRFASMMAPLARPIYWLPGNHDDGPLMTEYLHAAGISEAKQLVGEHWQVILLDTQVRGKPHGVLGDHQLAALDQALRQHPERHALIALHHQAVPVGCAWLDQHNLKPTTLFAVLARHPQQKTILFGHVHQEFDETAGMRLIASPSTCIQFKPLSDGLRAGREGHHHHHH | not soluble |
| MTTPTFDINAAIQALREGKDLTGKDGILTPLIKQLTEAALAAELDGHLASTEGANRKNGKTTKTVKSPLGNFELNTPRDRAGTFEPQLVKKHQTQLTDEMERKIIGLFSLGSSYQDIRAHIEDMYGMSVSNGTVNAITDKLLPELQAWRERELEPLYPVIWLDAIHYKIKENGRFISKAVYTILALNVEGKKELLGLYLSDNEGAHHWLSVLTDLYNRGVKDILIACVDGLKGFPEAIATIYPQTEVQLCVIHQIRNSMKYVASKHQKAFMADLKCVYKAATLNAAEMALDELETKWGDKYPVVIKSWRNKWALLSVYFKYPDYVRTAIYTTNAVEAVHRQFRKLTKTKGGFANENSLLKLLYAGILKASERWTHPIQNWNLTLSQLSIHFEGRLENHIDL | not soluble |
| LQMLTLEEWAAEKYRSNPPSVSTLRRYAKQNLFCPPAMKQGRLWRVREDAELVGELVTPVIKKNDSLLLQRILSNGSQTA | not soluble |
| MANSSPCMKAVRVPKSEAEQVRRLAEKLGVKDKSRRITATGDYVEIPIIDSAESFFKGYTIVEQDNPVFSRKRSLREILRGKVPEELIPTNYKVIGDIVVVKLDERAREYAKVIGEALMQINPCKAVWCDYGRYGMKRKPRMELIAGEGSVTEHRENGCRFRIDVAKVMFSLGNQAERMRIARLVEDGEVVVDMFAGIGYFSIPIAVHSKARRIYSIEINPESYKLLLENIKLNDVGNIVPILGDSQFVTPEGVADRVVMGHIYCHDYLHTAIRALKERGVVHYHEATPEAVIDRPVRRVEKACRKMGKKCRILGFKKVKNYSPGVYHVVVDAEVY | not soluble |
| MSLERLNKPSAPRYSRLREWVVGCAPNDLVVVKFGGSVLNGSPGFLAAGRLVLGLLESGLEPVVVVSAVKGVTDALLSSFERRDPGVGGAVGKTYLSIARELGLPPESVRDVSLASAEVSKLLWAAEVLGQWTPRVRDLVVSYGERLSAALMAGLLRRLGVEARWLGGGEAGIVTDGEFGDATPLYGYTEGVIRERLEPMLEEGVVPVVAGFTGATREGDTTLLGRGGSDLTATLLASALGAGRVVLYTDVPGILSGDPRVVGEPRRVGYMSYEEAWEVARLGLRKFHPRTFEPLIAGGLGVEVVVSDLRGRSTRIGPGRGGPPLKVVSLSRGVARLVVRGPSMAGKRGFLSRLAGLLAGRGVNILAIRQPPSETAIELVVDERDLPAAVEELGARSGAAGVRLEVERGFDVVSIVGWGAVEALPEALSAAEKTGGRLLSTGELSPSISILARGRTSPELARLLHRRVVESWVTGEGHHHHHH | not soluble |
| MRTALLQNLFSLFPFDLHGDCDVPPARDGIRVSCIINFYGRLNVLAGILWSLAQQDFPRSAFEVILVEDRGGSDEGRALAEEFSSRLPIVYAPLDKQYGLMGYSRNFGLERSRGEFILFLDDDTIILQDDFLKTMVAYFDAQPGVSAIMPHGEASFAFVDDRYDFHDPFFMTSRCTAYRRTVLASLGGFMSSFIGQEDVEFVIRFHAAGNRCAAVPQLAYRHPPLYVTNLGKPMAVGSSFYGIRKRYPLVTWLLAVVNCSRHLPLVLAPSRKYREMGRFGLGFLWGVLTAPFRSGSLNYRLEHHHHHH | not soluble |
| MGCEPKRDCGCCQNSICEFLQSLEPYTKVESIIIAGNEIAVSYFLSFNKKTGIVSFVQEDNEVIFVDCSKIDAIRIGKVCSCKTKVKYIEEDFSLLGNVCPHCLTEGSTIFFDFNNPELNVSFQATTINPPRCTEFTDDLGNVVKQITIVGEAKVSRDFVQVPELVGFRLLLSHLAGDPLNYGLLFINFPDTIFIFILASSGYLSISNCLKIEGGTGDAEIEEMKKMIEDDVNTYKSVVKLTKVYKNGETESFIYKNEL | not soluble |
| MTYDALHVFDWIKARSGDNPVYIWGHSLGTGVATNLVRRLCERETPPDALILESPFTNIREEAKSHPFSVIYRYFPGFDWFFLDPITSSGIKFANDENMKHISCPLLILHAEDDPVVPFHLGRKLYNIAAPSRSFRDFKVQFIPFHSDLGYRHKYIYKSPELPRILREFLGKSEPERQH | not soluble |
| ARKIGIIGLGNVGAAVAHGLIAQGVADDYVFIDANEAKVKADQIDFQDAMANLEAHGNIVINDWAALADADVVISTLGNIKLQQDNPTGDRFAELKFTSSMVQSVGTNLKESGFHGVLVVISNPVDVITALFQHVTGFPAHKVIGTGTLLDTARMQRAVGEAFDLDPRSVSGYNLGEHGNSQFVAWSTVRVMGQPIVTLADAGDIDLAAIEEEARKGGFTVLNGKGYTSYGVATSAIRIAKAVMADAHAELVVSNRRDDMGMYLSYPAIIGRDGVLAETTLDLTTDEQEKLLQSRDYIQQRFDEIVDTL | soluble |
| MESLYTSTLSEISEEEIVKGRIVSISNKDVTIDVGFKSEGIVSLLEFRDDDEIKVGDDVEVYLENIEDKMGQLILSKRKADVLRIWDKIYDSIENDTIINGKIINRVKGGMTVSLSGVEAFLPGSQIDVKPVRDFDALVGKTMDFRVVKINPVTQNIVVSHKVILEEEYAAKREEMLANIKVGMVLEGTVKNITDFGIFVDLGGLDGLVHITDITWGRINHPSEVVELDQPIKVVVVGFDENTKRVSLGMKQLEAHPWENIEIKYPVGIKATGRVVSITDYGAFVEIEKGIEGLVHISEMSWTQHIKHPSQFVSLNQEVEVVILNIDKEHTKLSLSMKRVSEDPWIALSEKYVEGSLHKGTVSNITDFGVFVELEPGVDGLVHISDLSWTKKIRHPSELVKKGQELEVKVLKFDVNARRIALGHKQINNDPWGEFEQKYAVGAECTGAISQIIEKGVIVILPGEVDGFVPVSHLLQGGVKDIHSSFKIGDELPLRVIEFDKENKRIILSALEYFKDKSKEEIEAYLQAHPNEKKEIEAASAELEPQPKGR | not soluble |
| GPGSMIYVSERPMARTFVVFDKDGKPAERPDEYFPLVQMDKEEFVNRRRGHVADENLFAVDGDLILSHLIMGTQIMYDAEKNAVHSCDTGESEADGSIPISVRVLSDEFVVRHESQPDCLAWGSEAPSVYAG | not soluble |
